Measured values as given in US9389219B2, “Methods for screening inhibitors of tumor associated protein aggregation” (Vrije Universiteit Brussel, priority 2011, dated 2016).

System: mutant p53 inclusions in SaOS-2 cells
Assay: Nocodazole treatment of transfected SaOS-2 cells, immunofluorescence of aggresomal inclusions
Type: cell-based, human
Settings: SaOS-2 cells co-expressing aggregating p53 mutants and TAp63α/TAp73α
Method: To further investigate the aggresomal nature of the observed inclusions, several strategies were adopted. (i) Since the formation of cytoplasmic inclusions in aggresomes is an active process that depends on cytoskeletal integrity,^15 transfected cells were treated with nocodazole, a small chemical that disrupts microtubule assembly. […] (ii) The oligomerization state of p53 in SaOS-2 cells by Blue-Native PAGE (BN-PAGE) and Western blot analysis was also assessed, after cell lysis with a mild detergent (CHAPS). […] In denaturing but non-reducing PAGE, the oligomers and aggregates were dissociated into monomers, and all mutants were expressed at similar levels (FIG. 2, panel c).
Since co-aggregation of proteins depends strictly on sequence similarity rather than hydrophobicity,^27 mutant p53 might also be able to induce co-aggregation and inactivation of p63 and p73. To investigate this hypothesis, mutant p53 and the transactivation domain (TA) of p63 or p73 (TAp63α/TAp73α) were co-expressed in SaOS-2 cells. […]
In the degradation stability test, protein synthesis was blocked by 60 μg/mL cycloheximide 24 hours after transfection, and cells were lysed 0, 3, 6, 12, 24 and 48 hours after the addition of cycloheximide. […] Cells were analyzed by immunofluorescence after 24 hours.

Molecule | vimentin network and aggregates of mutant p53 and p63/p73
COC(=O)Nc1nc2ccc(C(=O)c3cccs3)cc2[nH]1 [nocodazole] | disrupted the vimentin network and resulted in diffused punctuate aggregates in the cytoplasm

Same assay, conditions: SaOS-2 cells over-expressing mutant p53

Molecule | cellular distribution of mutant p53
COC(=O)Nc1nc2ccc(C(=O)c3cccs3)cc2[nH]1 [nocodazole] | shifted from a punctate to a diffuse cytoplasmic staining

Target: p53β (p53-aggregating sequence ILTIITL) (Homo sapiens, UniProt P04637)
Assay: In vitro peptide-binding assay (PepSpot membrane, biotinylated p53β peptide, streptavidin-HRP)
Settings: immobilized peptide, p53β self-interaction = 100,00
Excerpt: In order to identify aggregating peptides that match p53β, the human proteome for peptides that have high homology with the p53β peptide were screened. While p53β is unique to p53, in silico analysis identified 56 additional peptides (Table 2) that have no more than two mismatches with p53β. Subsequently, the ability of the selected peptides to interact with p53β using an in vitro peptide-binding assay was empirically determined. Therefore, the 56 selected peptides were spot-synthesized on a cellulose membrane, which was subsequently incubated with biotinylated p53β peptide (FIG. 17, panel b). After washing, the membrane was treated with streptavidine-HRP to detect p53β binding (FIG. 17, panel c). Consistently, the assay successfully identified control peptides including p53β itself, as well as the equivalent sequences from p63 and p73. […] The sequence identity between p53β and their interacting peptide, however, is 75%. Although the function of the proteins from which these 33 interacting peptides stem is often poorly characterized, some interesting cases can be identified. Along with the previously identified p63 and p73, which are inactivated by mutant p53 in cancer, segments were found belonging to Copine-2 (CPNE2), which is a negative regulator of growth factor signaling,^72 methionine synthase (METH), which has been associated to methionine dependence in tumors,^64 CGRF1, a negative regulator of cell proliferation,^67 and caspase-8 (CASP8), a key element for apoptosis, the inactivation of which is associated to chemoresistance and found in a variety of human cancers.^66
Peptides of selected sequences were spot synthesized on PVDF membrane (PepSpot, JPT). The membranes were blocked by 1% BSA in phosphate-buffered saline for 1 hour at room temperature, and then incubated with biotinylated peptide containing the p53-aggregating sequence for 1 hour. After rinsing with 0.1% TWEEN® 20 in 25 mM MES buffer pH 7.0, membranes were incubated in HRP-labeled Streptavidin (Thermo) and visualized with electrochemical luminescence (ECL) system.

Molecule | Binding intensity (normalized)
ILTKISL (listed as Homo sapiens) [peptide from HEAT1_HUMAN] | 8,65
ILTILCL (listed as Homo sapiens) | 4,81
ILQIITE (listed as Homo sapiens) [peptide from DHX29_HUMAN] | 15,64
ILTKSTL (listed as Homo sapiens) [peptide from CND2_HUMAN] | 17,86
ILTICTK (listed as Homo sapiens) | 6,48
MLTEITL (listed as Homo sapiens) | 3,03
KLTIITS (listed as Homo sapiens) [peptide from CM031_HUMAN] | 17,88
VLTISTL (listed as Homo sapiens) | 6,72
ILTDVTL (listed as Homo sapiens) | 5,88
ILTSQTL (listed as Homo sapiens) | 2,39
IEVIITL (listed as Homo sapiens) [peptide from CXL11_HUMAN] | 8,54
IKSIITL (listed as Homo sapiens) [peptide from CT132_HUMAN] | 4,39
ITTVITL (listed as Homo sapiens) [peptide from CD041_HUMAN] | 5,27
ILTIITL (listed as Homo sapiens) | 100,00
ILKNITL (listed as Homo sapiens) [peptide from BPA1_HUMAN] | 12,10
LLTIINL (listed as Homo sapiens) | 1,55
ILTNTTL (listed as Homo sapiens) [peptide from CC132_HUMAN] | 76,96

Molecule | Binding intensity (normalized)
ILLIITD (listed as Homo sapiens) [peptide from CPNE2_HUMAN] | 111,13
IVTIITA (listed as Homo sapiens) | 17,21
ILTIGTG (listed as Homo sapiens) | 49,22
ITTGITL (listed as Homo sapiens) [peptide from CGRF1_HUMAN] | 36,69
ALVIITL (listed as Homo sapiens) [peptide from CCNI2_HUMAN] | 43,37
GLTIPTL (listed as Homo sapiens) | 10,86
LLTIETL (listed as Homo sapiens) | 26,55
IYTGITL (listed as Homo sapiens) | 32,12
ILTFKTL (listed as Homo sapiens) [peptide from DYH3_HUMAN] | 6,20
ILTIVSL (listed as Homo sapiens) [peptide from DHX33_HUMAN] | 10,20
ILKQITL (listed as Homo sapiens) | 19,84
LLTIILL (listed as Homo sapiens) | 3,95
ALTFITL (listed as Homo sapiens) [peptide from BN3D2_HUMAN] | 6,47
ILDIITS (listed as Homo sapiens) [peptide from ANXA6_HUMAN] | 78,87
ILTILTE (listed as Homo sapiens) [peptide from CASP8_HUMAN] | 11,43
ILTITTP (listed as Homo sapiens) [peptide from CBPC3_HUMAN] | 19,59
ILRQITL (listed as Homo sapiens) [peptide from CD2A1_HUMAN] | 14,74

Next, values leading:

Binding intensity (normalized) | Molecule
79,63 | ILSIDTL (listed as Homo sapiens) [peptide from SPEF2_HUMAN]
33,34 | ILTKYTL (listed as Homo sapiens) [peptide from NOL11_HUMAN]
12,86 | ILTEIHL (listed as Homo sapiens) [peptide from RFC5_HUMAN]
98,99 | ILIIITL (listed as Homo sapiens) [peptide from P73_HUMAN]
9,72 | IKTIINL (listed as Homo sapiens) [peptide from PTPC1_HUMAN]
26,40 | FLTIFTL (listed as Homo sapiens) [peptide from PRA10_HUMAN]
10,18 | TLTISTL (listed as Homo sapiens) [peptide from KV117_HUMAN]
16,85 | ILGKITL (listed as Homo sapiens) [peptide from MP2K4_HUMAN]
16,14 | ILTKPTL (listed as Homo sapiens) [peptide from MYST3_HUMAN]
17,31 | ILTSGTL (listed as Homo sapiens) [peptide from RTEL1_HUMAN]
30,92 | RRPILTIITLEDGS (listed as Homo sapiens) [reference compound]
3,67 | CLTIITG (listed as Homo sapiens) [peptide from TRI18_HUMAN]
23,80 | ILTISSL (listed as Homo sapiens) [peptide from KV122_HUMAN]
6,81 | ILVIITR (listed as Homo sapiens) [peptide from LONF2_HUMAN]
92,04 | ILIIVTL (listed as Homo sapiens) [peptide from P63_HUMAN]
7,89 | ILCDITL (listed as Homo sapiens) [peptide from KLH32_HUMAN]
9,77 | ILTLIEL (listed as Homo sapiens) [peptide from SMG1_HUMAN]
26,33 | ILQIISL (listed as Homo sapiens) [peptide from PK3C3_HUMAN]
7,06 | IQTISTL (listed as Homo sapiens) [peptide from SCC4_HUMAN]
14,09 | ILTIKEL (listed as Homo sapiens) [peptide from ZN830_HUMAN]
40,18 | DLTIIDL (listed as Homo sapiens) [peptide from MX2_HUMAN]
8,22 | IHAIITL (listed as Homo sapiens) [peptide from LRC40_HUMAN]

System: WT p53 in U2OS cells
Assay: Western blot of p53 in U2OS cells treated with chemotherapeutic agents
Type: cell-based, human
Settings: not given

Molecule | p53 expression level (Western blot)
COc1cccc2c1C(=O)c1c(O)c3c(c(O)c1C2=O)C[C@@](O)(C(=O)CO)C[C@@H]3O[C@H]1C[C@H](N)[C@H](O)[C@H](C)O1 [doxorubicin] | increased expression levels of p53

System: WT p53 in U2OS cells
Assay: Native page analysis of p53 in treated U2OS cells
Type: cell-based, human
Settings: not given

Molecule | p53 high molecular-weight species (native page)
COc1cccc2c1C(=O)c1c(O)c3c(c(O)c1C2=O)C[C@@](O)(C(=O)CO)C[C@@H]3O[C@H]1C[C@H](N)[C@H](O)[C@H](C)O1 [doxorubicin] | high molecular-weight species of p53
CC(C)C[C@H](NC(=O)[C@H](Cc1ccccc1)NC(=O)c1cnccn1)B(O)O [Bortezomib] | smear was comparable
